Substrate in this series: O=[N+]([O-])c1ccc(O[C@H]2O[C@H](CO)[C@@H](O)[C@H](O)[C@@H]2O)cc1
The series is described as follows: 4NP-Man hydrolysis kinetics. Type of series: biochemical, Bacteroides thetaiotaomicron. The note with it: other: substrate 4NP-Man.

B1: Bt3963 (Bacteroides thetaiotaomicron VPI-5482) (protein)
chain: QQPVDYVNPIIGTNGMGHTFPGACTPFGWVQLSPDTDTIPHNVNGAYQKNAYEYCAGYQYRDKTIVGFSHTHLSGTGHSDLGDILLMPAVGDVKLNPGRADHPEEGYRSRFDHATEKATPGYYEVMLDDYGIKAQLTATQRTGVHKYTFPKGKDGHLILDLVHGIYNYDGKVLWANLRVENDTLLTGYRITNGWARTNYTYFAISLSQPIKDYGYKDKEKVLYNGFWRRFKLEKNFPEITGRKIVAYFNFETAKDPELVVKVALSAVSTEGAVKNLRAEASGKSFEQLAEAARTDWNNELDHFEIEGTPDQKAMFYTSLYHTMINPSVYMDVDGSYRGLDHNIHQAKGFTNYTIFSLWDTYRAEHPFLNLVKPERNADMVESMIKHEQQSVHGMLPIWSLMGNENWCMSGYHAVSVLADAITKGVFSNVDEALSAMVSTSTVPYYEGVADYMKLGYIPLDKSGTAASSTLEYAYDDWTIYQTALKAGNKEIADTYRKRALNYRNIYDTSIGFARPRYSDGTFKKEFDVLQTYGEGFIEGNSWNFSFHVPHDVFGMIDLMGGEKTFVQKLDELFSMHLPEKYYEHNEDITEECLVGGYVHGNEPSHHVPYLYAWTSQPWKTQYWLREILNKMYKNDINGLGGNDDCGQMSAWYLFSVMGFYPVCPGTDQYVLGAPYLPYLKLTLPNGKTLEIKAPGVSDKKRYVQSLKLNGESYDKMYITHEDILKGGVLEFKMSASPNKRRGVSVQDKPYSLTNGIN
The term Km denotes the substrate concentration at which the rate is half of its maximum. The kcat is the maximal rate divided by the concentration of active sites. What is called kcat/Km is the second-order rate constant that governs catalysis at low substrate concentration. As for B1, where the note is “enzyme Bt3963, pH 7.0”, the Km was 790 ± 80 µM, the kcat amounted to 0.00045 ± 1.67e-05 s⁻¹ and the specificity constant (kcat/Km) was found to be 0.567 M⁻¹ s⁻¹.

B2: Bt3994 (Bacteroides thetaiotaomicron VPI-5482) (protein)
chain: EIDYTSYVNPFIGTDFTGNTYPGAQAPFGMVQLSPDNGLPGWDRISGYFYPDSTIAGFSHTHLSGTGAGDLYDISFMPVTLPYKEAEAPLGIYSKFSHDEESAYAGYYQVRLKDYHINVELTATERCGIQRYTFPKAEAAIFLNLKKAMNWDFTNDSHIEVVDSVTIQGYRYSDGWARDQRIYFRTRFSKPFDKVELDTTAIIKDKQHIGTAVIARFDFHTEEGEQILVNTAISGVSMEGAAKNLQAEVPENDFDKYLAETKANWNRQLGKIEVEGDNQDDKVNFYTALYHSMIAPTIYSDVDGAYYGPDKKVHQSDGWVNYSTFSLWDTYRAAHPLFTYTEPERVNDMVKSFIAFFEQNGRLPVWNFYGSETDMMIGYHAVPVIVDAYLKGIGNFDAEKALAACVATANLDNYRGIGLYKQLGYIPYNVTDHYNAENWSLSKTLEYAFDDYCIAEMANKMGKKEIADEFYKRSQNYKNVYNPATSFMQPRDDKGNFIKDFKADEYTPHICESNGWQYFWSVQHDIDGLIDLTGGKNRFAEKLDSMFTYHPAADEELPIFSTGMIGQYAHGNEPSHHVIYLFNAVGQQNLTQKYVAKVMNELYKNEPAGLCGNEDCGQMSAWYVFSAMGFYPVNPVSGKYEIGTPLFPEMKLHLANGKTFTVLAPKVSKENIYIQSIKVDGQPYNKTYLTHEQIMSGTTVEFEMGNTPLVEVEFEEQTQ
As to B2, for the setting “enzyme Bt3994, pH 7.0”, the Km was determined as 3700 ± 430 µM, the kcat is 1.57 ± 0.0933 s⁻¹ and the kcat/Km amounted to 433 M⁻¹ s⁻¹.

B3: Bt1032 (Bacteroides thetaiotaomicron VPI-5482) (protein)
chain: GEGKAPPMDKEKSLLIDYVDPFIGTTNFGTTNPGAVCPNGMMSVVPFNVMGSADNTYDKDARWWSTPYEHTNCFFTGYSHVNLSGVGCPELGSLLLMPTTGELNVDYKEYGSKYKDEQASPGYYSNYLTKYNIKTEVSATPRTGIARFTFPKGESHILLNLGEGLTNESGAMLRRVSDSEIEGMKLLGTFCYNPQAVFPIYFVMRVNKVPATTGYWKKQRPMTGVEAEWDRDQGKYKLYTRYGKEIAGDDVGAYFTFETEEGEQVEVQMGVSFVSIENARLNLDKEQSGKNFEQVLSDARAQWNDDLSRITVEGGTDAQKTVFYTALYHLLIHPNVLQDVNGEYPAMESDQILTTKGTRYTVFSLWDTYRNVHQLLTLVYPERQMEMVRTMLDMYREHGWFPKWELYGRETLTMEGDPSIPVIVDTWMKGLRDFDVDLAYEAMYKSATLPGAENLMRPDNDDYMSKGYVPLREQYDNSVSHALEYYIADFALSRFADALGKKKDAEMFYKRSLGYKHYYSKEFGTFRPILPDGTFYSPFNPRQGENFEPNPGFHEGNSWNYTFYVPHDVYGLAKLMGGKKPFVNKLQMVFDEGLYDPANEPDIAYAHLFSYFKGEEWRTQKETQRLLDKYFTTKPDGIPGNDDTGTMSAWAIFNMIGFYPDCPGLPEYALTTPVFNKVTIRLDPKWYKENELVIESNRTGSETLYINKVLLDGKKFNKYRITHDELVHGKRLIFDLK
With B3, for the setting “enzyme Bt1032, pH 7.0”, the Km amounted to 1700 ± 360 µM, the kcat turned out to be 0.006 ± 0.000633 s⁻¹ and the catalytic efficiency (kcat/Km) was found to be 3.5 M⁻¹ s⁻¹.

B4: Bt3991 (Bacteroides thetaiotaomicron VPI-5482) (protein)
chain: MKLKTLLIGCFGGFIMLNSCTESPSVKDYSAYVNPFIGTGGHGHTFPGAVVPHGMIQPSPDTRIDGWDACSGYYYDDNTINGFSHTHVSGTGCCDYGDVLLMPTVGKPQYLTTDPESQKLAYASAFSHENETAEPGYYSVFLDTYQVKAEITATKRGAIHRYTFPESTESGFIIDLDYSLQRQTNYEMEIEVISDTEICGHKKTTYWAFDQYINFYAKFSKPFAYTLITDSVTMDNGKRLPVCKAVLHFNTKKDEEVLVKVGVSAVDIAGARKNVESEIPEWDFDKVRKDARTAWNNYLSKIDITTSDKEDKTIFYTALYHTAISPNLFTDADGRYLGMDLEVHQGDTINPLYTVFSLWDTFRALHPLMTIIDPNLNNQFINSLIRKHQEGGIYPMWDLASNYTGTMIGYHAVPVIVDAYMKGYRNFDAHEAYKASLRAAEYDTTGIKCPDLVLPHLMPKAKYYKNAIGYIPCDRENESVAKALEYAYDDWCISIFAEAMNDFENKAKYERFAKAYEFYFDKSTRFMRGLDSNGEWRTPFNPRASTHRSDDYCEGTAWQWTWFVPHDVEGLVKLMGGEDAFVEKLDSLFTVDSSLDGETTSADISGLIGQYAHGNEPSHHVIHLYNYVNRPWRTQELVDSVYRSQYANNVDGLSGNEDCGQMSAWYILNSMGFYQVCPGKPVYSIGRPAFDKAVINLPGEKTFSIVAKNNSKSNKYIESVLLNGKPLDTPFFGHQDIVAGGVMEIRMTDHPTQWGVRQ
In the case of B4, for the setting “enzyme Bt3991, pH 7.0”, the turnover number (kcat) was determined as 0.0025 ± 0.00035 s⁻¹ and the kcat/Km was 0.917 M⁻¹ s⁻¹.

B5: Bt3130 (Bacteroides thetaiotaomicron VPI-5482) (protein)
chain: GEITKYVNPFIGTGAIDGGLSGNNYPGATSPFGMIQLSPDTSEAPNWGDASGYDYNRNTIFGFSHTRLSGTGASDLIDITLMPTSSGRTSSAFTHDEEKARPGYYQVMLKDENINAELTTTQRNGIHRYQYPAGKDAEIILDMDHSADKGSWGRRIINSQIRILNDHAVEGYRIITGWAKLRKIYFYMEFSSPILTSTLRDGGRVHENTAVINGTNLHGCFRFGQLNGKPLTCKVALSSVSMENARQNMEQEAPHWDFDRYVAAADADWEKQLGKIEVKGTEVQKEIFYTALYHTMIQPNTMSDVNGEYMAADYTTRKVANNETHYTTFSLWDTFRASHPLYTLLEPERVTDFVKSMIRQYEYYGYLPIWQLWGQDNYCMIGNHSIPVITDAILKGIPGIDMEKAYEAVYNSSVTSHPNSPFEVWEKYGFMPENIQTQSVSITLEQAFDDWCVAQLAAKLNKDADYQRFHKRSEYYRNLFHPKTKFFQSKNDKGEWIEPFDPYQYGGNGGHPFTEGNAWQYFWYVPHNIQALMELTGGTKAFEQKLDTFFTSTYKSEQMNHNASGFVGQYAHGNEPSHHVAYLYNFAGQPWKTQKYVSHILNTLYNNTSSGYAGNDDCGQMSAWYVFSAMGFYPVNPADGRYIIGSPLLDECTLKLAGNKEFRIRTIRKSPEDIYIQSVTLNGKKHKDFFITHQDIMNGGTMVFKMGKKPSGWGK
B5: under “enzyme Bt3130, pH 7.0”, the Km turned out to be 510 ± 97 µM, the catalytic constant (kcat) amounted to 56.7 ± 3.17 s⁻¹ and the kcat/Km was determined as 112000 M⁻¹ s⁻¹.

For the origin of these results see publication PMC3942423 (Nature chemical biology, 2009).
